Measured values taken from patent publication US20220288202A1, “Use of Calcineurin Inhibitor Free CTLA4-IG + Anti-IL6/IL6R For Long Term Immunosuppression in Solid Organ Transplant Recipients” (Cedars-Sinai Medical Center, priority 2019, published 2022).
Values joined by “and” are separate entries in the source; they are usually repeats but may differ in a detail not shown here. Equal entries are not always repeated. “Also recorded” adds a separate entry of the source.

Tests used:
[1] = tested on: highly HLA sensitized kidney transplant recipients; experiment: Experience with anti-IL-6/IL-6R+CTLA4-Ig, CNI-free and MMF-free, in human kidney transplant recipients (case courses); assay type: in vivo
Text: Four patients were maintained on CNI-free and MMF-free immunosuppression on anti-IL-6R or anti-IL-6+CTLA4-Ig for a prolonged time period (years) after transplant. These patients received two infusions per month as their standard immunosuppression.

[2] = tested on: Treg cells (CD4+, CD25+, CD127dim, FoxP3+); experiment: Tregs by flow cytometry in clazakizumab-treated HLA sensitized patients; assay type: in vivo, human; details: for Mean Treg value: baseline 3.2+1.09%, in CD4+ cells
Description: (§1) As part of a phase I/II trial of clazakizumab for desensitization, HLA sensitized patients received anti-IL-6, 25 mg SC monthly×6 doses with monitoring of HLA antibody levels and Tregs. Patients were treated pre- and post-transplant with clazakizumab. Transplanted patients received monthly clazakizumab 25 mg subcutaneously starting 5-7 days post-transplant for 12 months. Tregs were determined by flow cytometry as CD4^+, CD25^+, CD127^dim, FoxP3^+ cell populations in CD4^+ cells. Determinations were made at baseline, at transplantation and day 180 post-transplant.

[3] = tested on: patients/subjects taking clazakizumab; details: human, in vivo, cited from earlier work
[4] = tested on: HLA antibodies (class I and class II); experiment: clazakizumab desensitization trial (NCT03380962): HLA antibody levels pre- and post-clazakizumab; assay type: in vivo, human
Description: (§2) Patients entered into the afore-described clazakizumab desensitization trial (NCT03380962) where 75% were in the 99-100% Panel Reactive Antibody (PRA) range received clazakizumab 25 mg subcutaneously monthly for up to 6 months. If transplanted, they received continued clazakizumab for up to 6 M post-transplant. This group of patients are exceedingly difficult to transplant due to high likelihood of severe antibody mediated rejection and graft loss post-transplant. Antibody levels, pre-post-transplant and Treg cells were monitored at concomitant time points.
as §1

[5] = tested on: donor specific antibodies; experiment: clazakizumab desensitization trial: donor specific antibodies pre- and post-transplant; assay type: in vivo, human
Description: as §2
Transplant patients who were treated as described in the previous example were also monitored to assess the effect of clazakizumab on donor specific antibodies. Particularly, levels of donor specific antibodies were monitored in transplant patient samples pre- and post-transplant.

monkeys = details: monkey, in vivo; cited from earlier work
[6] = in vivo; cited from earlier work
[7] = tested on: highly HLA sensitized patients (HLAi kidney transplant); experiment: clazakizumab desensitization trial: transplantation, rejection episodes and graft loss; assay type: in vivo, human; details: for highly sensitized patients able to receive transplants: after clazakizumab desensitization
Description: as §2, §1

[8] = post-transplant on clazakizumab

## C=CC[C@@H]1/C=C(\C)C[C@H](C)C[C@H](OC)[C@H]2O[C@@](O)(C(=O)C(=O)N3CCCC[C@H]3C(=O)O[C@H](/C(C)=C/[C@@H]3CC[C@@H](O)[C@H](OC)C3)[C@H](C)[C@@H](O)CC1=O)[C@H](C)C[C@@H]2OC [tacrolimus]
[1]; patient, three years after anti-IL-6R start, tapered off
  biopsy toxicity finding: toxicity seen on a biopsy

## tocilizumab
[1]; person on CTLA4-Ig + tocilizumab monthly
  duration of stable course with declining SCr: over 1.5 years
[1]; person, chronic ABMR, on CTLA4-Ig, converted from CELLCEPT to tocilizumab monthly
  SCr course: stable with declining SCr

B1: clazakizumab (antibody, chains of the INN, looked up, V domains shown)
VH: EVQLVESGGGLVQPGGSLRLSCAASGFSLSNYYVTWVRQAPGKGLEWVGIIYGSDETAYATSAIGRFTISRDNSKNTLYLQMNSLRAEDTAVYYCARDDSSDWDAKFNLWGQGTLVTVSS
VL: AIQMTQSPSSLSASVGDRVTITCQASQSINNELSWYQQKPGKAPKLLIYRASTLASGVPSRFSGSGSGTDFTLTISSLQPDDFATYYCQQGYSLRNIDNAFGGGTKVEIK
notes: Genetically engineered humanized anti-IL-6 mAb
[2]; at transplant, p=NS
  Mean Treg value: 3.5+1.75%
[2]; day 180 post-transplant, still on anti-IL-6 therapy
  change in Treg cells: significant increase; also recorded: dramatic increase
[2]; day 180 post-transplant, p=0.008
  Mean Treg value: 12.6+9.3%
[3]; iv
  infusion reactions: no infusion reactions
[3]; sc
  severity of injection site reactions: mild or moderate
[3]
  demyelinating disorder events: rarely reported
  malignancies: no imbalance of malignancies
  outcome of pregnancies in subjects taking clazakizumab: one spontaneous abortion
  reactivation of viral and other serious infections (e.g. EBV or TB): rarely reported
[4]; post claza, pre-desensitization 13062±3123, p=0.05, nine transplanted patients
  Mean MFI for HLA cl: 8585±4597 MFI
[4]; post claza, pre-desensitization 13519±2966, p=0.03, nine transplanted patients
  Mean MFI for HLA cll: 8344±4836 MFI
[4]; pre- vs post-clazakizumab 25 mg SC monthly
  impact on HLA antibodies (class I and class II): significant reductions; also recorded: reduced
[5]; at transplant
  donor-specific antibodies present prior to transplant: significantly reduced
[5]; by day 180 post-transplant
  DSA status of DSA+ patients: negative
[5]; post-transplant
  donor-specific antibodies present prior to transplant: disappeared
[5]; up to 3 months post-transplant
  pathogenic antibodies: significant reduction
monkeys
  monkeys with retained placentas in which excessive uterine hemorrhage led to moribund status: 3 of the 5
[6]
  elimination half-life (t1/2): about 30 days
[7]
  highly sensitized patients able to receive transplants: all of these patients and 9/10
[7]; listed as claza
  highly sensitized patients able to receive transplants: 10 patients
[7]; [8]
  grafts lost due to rejection: no grafts were lost; also recorded: no graft loss
  transplant patients with rejection episodes: Two of the ten and 2 of 10
